Measured values reported in patent US20160304858A1.
Primed or numbered codes have the meaning given here. Where no end group is shown, it is not given here. [ ]: non-standard residue; d: D form. The star is where a group is joined. Hpra′ = its azide, alkyne or alkene has reacted where a group follows in round brackets; maleimide‑biotin = maleimide-biotin reagent joined to deprotected Cys; Man9″ = Man9 glycan attached to Hpg by CuAAC click with Man9-azide; Man9(3) = Man9-azide click-glycosylated onto Hpg; For = O=C*

B1: glycopeptide 10F3 -C15S (peptide)
peptide: For-[Hpra′](Man9)DTLHLKQIGG[Hpra′](Man9)PNSITQQDVR[Hpra′](Man9)TSIPYTYTWPGSGSLGHHHHHHRDYKDDDDK
B2: glycopeptide 10F2 (Fixed library, round 10), ribosomally translated (peptide)
peptide: For-[Hpra′](Man9″)HPYNTSRTSA[Hpra′](Man9″)[Hpra′](Man9″)AALK[Hpra′](Man9″)QVTD[Hpra′](Man9″)YALALFHRILGSGSLGHHHHHHRDYKDDDDK
B3: glycopeptide 10F5-C10,25S (peptide)
peptide: For-[Hpra′](Man9(3))SPHLPVLLSK[Hpra′](Man9(3))VLNDGRRIVQ[Hpra′](Man9(3))SSELP[Hpra′](Man9(3))VRRSGSGSLGHHHHHHRDYKDDDDK
B4: glycopeptide 10F8 (Fixed library, round 10) (peptide)
peptide: For-[Hpra′](Man9(3))LLK[Hpra′](Man9(3))VDQSRL[Hpra′](Man9(3))PVPGIGVTLH[Hpra′](Man9(3))RSIPYSYLPIGSGSLGHHHHHHRDYKDDDDK
B5: glycopeptide 10F12 (Fixed library, round 10) (peptide)
peptide: For-[Hpra′](Man9″)CYVTVIPA[Hpra′](Man9″)N[Hpra′](Man9″)PEARLGIVCH[Hpra′](Man9″)PGIRRGKALYGSGSLGHHHHHHRDYKDDDDK
modifications: not fully specified (bridges); cysteine pairing not given here
B6: glycopeptide 10V8 (Variable library, round 10) (peptide)
peptide: For-[Hpra′](Man9(3))VLPTIISTNVNPFR[Hpra′](Man9(3))LSIPTYTYL[Hpra′](Man9(3))PITWGEIGSGSLGHHHHHHRDYKDDDDK
B7: glycopeptide 10V1 (Variable library, round 10) (peptide)
peptide: For-[Hpra′](Man9(3))ATKTNCKREKT[Hpra′](Man9(3))DNHVTI[Hpra′](Man9(3))RSIPWYTYRWLPNGSGSLGHHHHHHRDYKDDDDK
B8: glycopeptide 10F9 (Fixed library, round 10) (peptide)
peptide: For-[Hpra′](Man9(3))RSTLNSLEYR[Hpra′](Man9(3))QYATEDPRIR[Hpra′](Man9(3))ASIPYTYWWPGSGSLGHHHHHHRDYKDDDDK
B9: glycopeptide 10F3 (Fixed library, round 10) (peptide)
peptide: For-[Hpra′](Man9(3))DTLHLKQIGG[Hpra′](Man9(3))PNCITQQDVR[Hpra′](Man9(3))TSIPYTYTWPGSGSLGHHHHHHRDYKDDDDK
B10: glycopeptide 10F6 (Fixed library, round 10) (peptide)
peptide: For-[Hpra′](Man9(3))L[Hpra′](Man9(3))FIRIYPTR[Hpra′](Man9(3))QYVYHAPLLT[Hpra′](Man9(3))VR[Hpra′](Man9(3))SPTGPLIGSGSLGHHHHHHRDYKDDDDK
B11: glycopeptide 10F5 (Fixed library, round 10) (peptide)
peptide: For-[Hpra′](Man9(3))SPHLPVLLCK[Hpra′](Man9(3))VLNDGRRIVQ[Hpra′](Man9(3))SCELP[Hpra′](Man9(3))VRRSGSGSLGHHHHHHRDYKDDDDK
modifications: cysteine pairing not given here
B12: glycopeptide 10F12-C2,21S (peptide)
peptide: For-[Hpra′](Man9″)SYVTVIPA[Hpra′](Man9″)N[Hpra′](Man9″)PEARLGIVSH[Hpra′](Man9″)PGIRRGKALYGSGSLGHHHHHHRDYKDDDDK
B13: glycopeptide 10V9 (Variable library, round 10) (peptide)
peptide: For-[Hpra′](Man9(3))TSIPYTYLNRSLWTNYRVNSWS[Hpra′](Man9(3))SKNVNV[Hpra′](Man9(3))PLGSGSLGHHHHHHRDYKDDDDK

Key:
[1] = target: HIV broadly neutralizing antibody 2G12; test: radiolabelled glycopeptide with 2G12 in solution, protein G bead capture, scintillation counting
[2] = target: HIV broadly neutralizing antibody 2G12; test: radiolabelled glycopeptide with 2G12, protein G bead capture (end tied by Table 4)
[3] = target: HIV broadly neutralizing antibody 2G12; test: radiolabelled glycopeptide with 2G12, protein G bead capture; high end tied to 10V8 by Table 4
[4] = target: HIV broadly neutralizing antibody 2G12; test: radiolabelled glycopeptide with 2G12, protein G bead capture; low end tied to 10F6 by Table 4
[5] = target: HIV broadly neutralizing antibody 2G12; test: BLI curve fit, 1 nM 2G12
[6] = target: HIV broadly neutralizing antibody 2G12; test: BLI curve fit, 2 nM 2G12
[7] = target: HIV broadly neutralizing antibody 2G12; test: BLI curve fit, 4 nM 2G12
[8] = target: HIV broadly neutralizing antibody 2G12; test: BLI curve fit, 8 nM 2G12
[9] = target: HIV broadly neutralizing antibody 2G12; test: BLI curve fit, 16 nM 2G12
[10] = target: HIV broadly neutralizing antibody 2G12; test: BLI curve fit, 32 nM 2G12
[11] = target: HIV broadly neutralizing antibody 2G12; test: BLI curve fit, 0.5 nM 2G12
[12] = target: HIV broadly neutralizing antibody 2G12; test: BLI (BLItz), glycopeptide on streptavidin sensor, 2G12 in solution, global 1:1 fit

Binder	Fmax [1] [%]	Kd [1] [nM]	other results
B1	63	2.91	
For-[Hpra′](Man9(3))RSIPWYTYRWLPNGSGSLGHHHHHHRDYKDDDDK [glycopeptide 10V1-Δ9]	20	7.5	
B2	86	0.6	Kd [2]: 0.5 to 0.6 nM
B3	94	2.5	
B4	97	2.6	
B5	90	0.77	
B6	94	4.6	Kd [3]: 0.5 to 5 nM
B7	97	1.9	
For-[Hpra′](Man9(3))PNCITQQDVR[Hpra′](Man9(3))TSIPYTYTWPGSGSLGHHHHHHRDYKDDDDK [glycopeptide 10F3-Δ11]	32	25	
For-[Hpra′](Man9(3))[Hpra′](Man9(3))AALK[Hpra′](Man9(3))QVTD[Hpra′](Man9(3))YALALFHRILGSGSLGHHHHHHRDYKDDDDK [glycopeptide 10F2-Δ11]	70	0.89	
For-[Hpra′](Man9(3))VLNDGRRIVQ[Hpra′](Man9(3))SCELP[Hpra′](Man9(3))VRRSGSGSLGHHHHHHRDYKDDDDK [glycopeptide 10F5-Δ11]	17	> 200	
B8	86	3.1	
B9	100	3	
B10	87	0.54	Kd [2]: 0.5 to 0.6 nM; Kd [4]: 0.5 to 5 nM
B11	93	0.97	
For-[Hpra′](Man9″)HPYNTSRTSA[Hpra′](Man9″)[Hpra′](Man9″)AALK[Hpra′](Man9″)QVTD[Hpra′](Man9″)YALALFHRILGSGSGC(maleimide‑biotin)A [biotinylated synthetic 10F2 glycopeptide 3]			Req [5]: 0.682; Req [6]: 0.987; Req [7]: 1.26; Req [8]: 1.37; Req [9]: 1.41; Req [10]: 1.39; Req [11]: 0.481; Kd [12]: 1.37 nM; koff [12]: 0.000151 s⁻¹; kon [12]: 111000 M⁻¹ s⁻¹
B12	90	186	
B13	85	3.9	
